Results: US20070104676A1, “Cosmetic and/or dermatological preparations containing an extract from the seeds of plants of the genus adenanthera” (COGNIS FRANCE S.A., priority 2003, published 2007)

Columns and labels:
pancreas elastase = pancreas elastase (Sus scrofa, UniProt P00772); experiment: Inhibition of elastase activity; format: biochemical
Method: In order to test the effectiveness of the plant extract in inhibiting the release of elastase, pancreas elastase (a serine protease) was investigated and, as substrate, elastin was marked with a chromogenic synthetic substrate. The system was incubated with the active principles for 30 minutes at room temperature and then, after centrifuging, the optical density of the dye was determined at 410 nm. The extracts were used in a quantity of 0.3% by weight. The results are set out in Table 1 where they are expressed relative to a control as standard (=0%); a1-antitrypsin was used as the standard.

Human plasmin = molecular target: T1, Human plasmin (Homo sapiens, UniProt P00747); experiment: Inhibition of plasmin activity (quenched fluorescent casein hydrolysis); format: biochemical; settings: reference substance
T1 construct: purchased Sigma
Method: Method: Human plasmin obtained from Sigma was mixed with the extract in a quantity of 0.3% by weight and incubated for a few minutes at 20° C. Natural casein marked with a quenched fluorescence probe (Interchim natural) was then added. The protease-catalyzed hydrolysis degraded the quenching and produced a fluorescence signal. The proportion of hydrolyzed substrate was determined by measuring the increased green fluorescence over a period of 30 minutes. […] The inhibition of enzyme activity was evaluated by comparison with a control and a reference substance SBT1 (Sigma).

pancreas elastase, sequence (P00772 27-266): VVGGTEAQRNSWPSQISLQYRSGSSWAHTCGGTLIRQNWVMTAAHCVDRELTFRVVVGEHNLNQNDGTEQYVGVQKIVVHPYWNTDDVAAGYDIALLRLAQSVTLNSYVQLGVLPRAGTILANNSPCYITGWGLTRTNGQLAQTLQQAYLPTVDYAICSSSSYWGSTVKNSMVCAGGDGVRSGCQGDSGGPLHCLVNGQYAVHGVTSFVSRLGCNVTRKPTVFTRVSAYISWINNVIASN
T1 sequence (P00747 581-810 limits assumed): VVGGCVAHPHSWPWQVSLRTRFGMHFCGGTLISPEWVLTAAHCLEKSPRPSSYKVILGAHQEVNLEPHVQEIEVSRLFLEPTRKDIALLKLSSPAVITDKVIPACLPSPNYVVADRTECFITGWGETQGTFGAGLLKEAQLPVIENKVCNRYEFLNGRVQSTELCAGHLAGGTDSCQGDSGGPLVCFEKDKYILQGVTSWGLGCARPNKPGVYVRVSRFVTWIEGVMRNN
T1 sequence (P00747 97-580 partner limits assumed): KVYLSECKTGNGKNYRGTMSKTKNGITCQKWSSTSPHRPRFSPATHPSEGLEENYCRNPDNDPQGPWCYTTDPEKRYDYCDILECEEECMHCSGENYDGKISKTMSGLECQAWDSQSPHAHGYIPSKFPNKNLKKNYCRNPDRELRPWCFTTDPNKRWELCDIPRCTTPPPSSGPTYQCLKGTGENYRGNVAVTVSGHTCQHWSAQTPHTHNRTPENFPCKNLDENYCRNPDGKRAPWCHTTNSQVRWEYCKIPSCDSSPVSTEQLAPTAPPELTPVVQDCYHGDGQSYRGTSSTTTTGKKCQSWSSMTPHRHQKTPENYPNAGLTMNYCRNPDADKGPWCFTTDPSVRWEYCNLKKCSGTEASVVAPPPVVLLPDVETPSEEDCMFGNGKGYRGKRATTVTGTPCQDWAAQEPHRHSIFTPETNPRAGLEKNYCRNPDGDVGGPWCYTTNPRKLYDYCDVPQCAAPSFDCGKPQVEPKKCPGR

## α1-anti-trypsin: Standard used in the elastase inhibition test
Pancreas elastase
  IC50 (elastase inhibition, standard): IC50 = 0.13 mg/ml

B1: SBTI: Reference substance (Sigma) in the plasmin inhibition test (protein, UniProt P01070 25-205, looked up)
Trypsin inhibitor A: DFVLDNEGNPLENGGTYYILSDITAFGGIRAAPTGNERCPLTVVQSRNELDKGIGTIISSPYRIRFIAEGHPLSLKFDSFAVIMLCVGIPTEWSVVEDLPEGPAVKIGENKDAMDGWFRLERVSDDEFNNYKLVFCPQQAEDDKCGDIGISIDHDDGTRRLVVSKNKPLVVQFQKLDKESL
Human plasmin
  IC50 (plasmin inhibition, standard): 0.006%
